Experimental findings from the RNAGym collection of RNA variant scans (doi:10.7554/elife.80360) are described below.

To fix the notation:
B1: Twister Ribozyme (parent)
chain: AACACUGCCAAUGCCGGUCCCAAGCCCGGAUAAAAGUGGAGGGGGCGG

The variants in this data set derive from B1. In words: self-cleavage, relative activity (ratio to wild type); higher = more cleavage; co-transcriptional.
Turning to G42C G43U, the self-cleavage came out at 0.137.
On to C3G G7U, for which the self-cleavage was 0.057.
For the variant G29C G39C, the self-cleavage is 0.14.
Turning to G13C C25A, the self-cleavage came out at 0.0747.
For C20G G38A, the self-cleavage stood at 0.0626.
The same measure for C27A U31A: 0.676.
With C15A G16C the figure was 0.264.
With C15A G16A the figure was 0.351.
In the case of C9G G43C, the self-cleavage was 0.132.
Turning to G16C A32G, the self-cleavage was 0.518.
The same measure for U6C G36U: 0.0917.
With C14U G17U the figure was 0.373; with U6G G44U, 0.242; with A4G G44A, 0.88.
With A2G C27G, the self-cleavage is 0.138.
For A1U C8U, the self-cleavage was 0.087.
With C9G G16C the figure was 0.0741; with C21U G47U, 0.109; with U12C G38C, 0.951.
The same measure for U31C A33U: 1.08; for C8U U18A: 0.0657; for A23U C26U: 0.153.
For the variant G45U C46A, the self-cleavage is 0.595.
Regarding C15A G48A, the self-cleavage came to 0.528.
With G29C G44C the figure was 0.696.
The same measure for G29C G48A: 0.56; for A10U G13C: 0.211; for C15G A32G: 0.0996.
With U6G G48C the figure was 0.358; with U12C G39C, 0.127; with A1G G39C, 0.122.
In the case of C3A C21G, the self-cleavage amounted to 0.0514.
With G36U G45A the figure was 0.4.
Take A22C G41U: the self-cleavage was found to be 0.366.
With C14G C20G the figure was 0.111.
With G16C G39A the figure was 0.28.
With A33U G44A the figure was 0.907; with C3A G36A, 0.0998.
As to C15A G38C, the self-cleavage came to 0.452.
With U6C A33C the figure was 0.12; with G17A C25G, 0.0728; with C3A U31G, 0.121.
The same measure for U6A A23C: 0.097; for A10G U37G: 0.89.
With C15U G39C the figure was 0.146; with A34G C46A, 0.736.
Consider U12A G43U, for which the self-cleavage amounted to 0.477.
The same measure for A10G C46A: 0.939.
With C5U C20G the figure was 0.102; with G16A C25U, 0.852.
With A10G A35U the figure was 0.943; with C8G C19G, 0.0626.
A10U U31G: the self-cleavage amounted to 0.948.
For the variant G28U G38U, the self-cleavage was determined as 0.766.
G44A G47U: the self-cleavage stood at 0.922.
With C8A G28C the figure was 0.159.
The same measure for G17U U18A: 0.148; for G17C G36A: 0.0801; for G7U A10C: 0.117.
With U6A G45U the figure was 0.695.
Consider C15U A32C, for which the self-cleavage was 0.678.
On to U6C G39C, for which the self-cleavage was found to be 0.136.
With A30G G39A the figure was 0.582; with G45A C46U, 0.848; with A35C G48A, 0.917.
With A22U C46U the figure was 0.773; with G13C A35C, 0.403; with C15U G17U, 0.204.
The same measure for C26A G48A: 0.304; for C21A G45A: 0.114.
In the case of C8U U37A, the self-cleavage was 0.307.
C8G U18C: the self-cleavage is 0.0751.
The same measure for A11G G43U: 0.374; for G17U G43A: 0.13.
The same measure for A4G U6C: 0.104.
With C15A A35U the figure was 0.774; with G42A G48A, 0.296.
As to A11U G45U, the self-cleavage stood at 0.953.
With A4C G39C the figure was 0.0869.
The same measure for A11C C46G: 0.917; for G28C G48U: 0.543; for G43A G48C: 0.354.
With A1G G29U the figure was 0.358; with A4G G7A, 0.169.
With U18A G41C, the self-cleavage was 0.0769.
With C3G C15U the figure was 0.389; with G16A C21G, 0.0789; with A2G U12C, 0.316.
The same measure for G13A C20A: 0.09; for G7A U31C: 0.451; for C19U C27U: 0.802.
The same measure for C3G A11C: 0.295; for U37A A40G: 0.165; for C8G C21G: 0.0605.
U12A A40G: the self-cleavage was found to be 0.136.
With C9G G47U the figure was 0.278; with G17C G47A, 0.0753; with G38U G44U, 0.915.
The same measure for C14U A32G: 1.07; for C15G G41U: 0.0559.
The same measure for A2C U12G: 0.0824.
Take C8U C14G: the self-cleavage is 0.0673.
The same measure for C14A U31C: 0.913.
Consider G17U G44C, for which the self-cleavage was found to be 0.293.
Turning to U6G U31A, the self-cleavage was 0.169.
With U18C U37C the figure was 0.0756; with U6C A35C, 0.403; with G7A G38A, 0.0994.
The same measure for G7C G45U: 0.0816.
With G24U C27U the figure was 0.13; with G24A G36U, 0.0791; with C25G G28U, 0.259.
A33G G43U: the self-cleavage was determined as 0.238.
With A23U G29U, the self-cleavage was determined as 0.315.
For G24A U37A, the self-cleavage was found to be 0.0684.
With U12A G13U the figure was 0.577; with C5U G17U, 0.116; with G16A G44U, 1.
The same measure for C14U C21A: 0.108; for C14U U18C: 0.594.
With A1G C5G the figure was 0.172; with A11G C27A, 0.449; with G29C G41U, 0.125.
With G13A G17C, the self-cleavage was found to be 0.0471.
With A2G G29C the figure was 0.188; with A4U A11G, 0.184; with A34U G48C, 0.855.
As to C5A U31A, the self-cleavage was 0.438.
Take C15U G45U: the self-cleavage came out at 0.817.
With C5A A23G the figure was 0.0488; with C21U G38C, 0.0755; with C15A A34C, 0.156.
U12A C25A: the self-cleavage was determined as 0.15.
On to C9U U12G, for which the self-cleavage came to 0.501.
With G24C G43U the figure was 0.0968; with C3G A30G, 0.239; with A32G G45C, 0.559.
The same measure for U12A A35G: 1.06.
With A2G U6C the figure was 0.103.
U31C G42C: the self-cleavage was 0.413.
With G13C U37A the figure was 0.075.
With C14G A33U the figure was 0.172; with A1C A33U, 0.268.
The same measure for G36C G38U: 0.116.
As for C8G U37C, the self-cleavage came out at 0.131.
With A11C A32G the figure was 0.788.
With G7A G47U the figure was 0.19; with A4C A10C, 0.152.
The same measure for A10C G43A: 0.337; for C5G C8A: 0.15.
Consider A10U U37G, for which the self-cleavage was found to be 0.602.
With C15U C19U the figure was 0.902.
With A30C G43A the figure was 0.187.
The same measure for C20G C46U: 0.119; for A35G G48C: 1.04; for A4U G38U: 0.138.
On to G42C G45A, for which the self-cleavage was 0.329.
For the variant G7C A34G, the self-cleavage was determined as 0.061.
The same measure for A10U G44C: 0.937; for G38A G43U: 0.195; for G16A C27G: 0.745.
With G17U G28U the figure was 0.122; with C8A G47C, 0.169.
With A40G G47C the figure was 0.192; with A22U U37A, 0.256.
A11G U37A: the self-cleavage was found to be 0.587.
With U31A A34C the figure was 0.536.
